The results in this text go back to patent publication US20180335433A1 (LA JOLLA INSTITUTE FOR ALLERGY AND IMMUNOLOGY, published 2018).

Assay [1] has as its target T1, SH3-inactivated (W97A) Lck (UniProt P06239 2-509, limits assumed).
T1 construct: whole, on cells; also called Lck W97A
The assay can be described thus: anti-Myc IP from stimulated JCam1.6 cells reconstituted with Lck W97A, immunoblot for Lck (FIG. 12). The protocol: FIG. 12 Interaction between CD28 and the V3 of PKCθ is Lck-dependent. PKCθ-Lck-CD28 association in Lck-deficient (JCam1.6) Jurkat cells cotransfected with Myc-tagged PKCθ−V3 plus WT Lck or its indicated mutants, Transfected cells were stimulated with anti-CD3 and anti-CD28 for 5 min, immunoprecipitated with an anti-Myc Ab, and immunoblotted for Lck and endogenous CD28. Data are from three experiments.

Assay [2] has as its target T2, CD28, endogenous in primary mouse CD4+ T cells (mouse, UniProt P31041 20-218).
T2 construct: whole, on cells; Immunoprecipitated with anti-CD28 mAb from lysates of retrovirally transduced mouse T cells; also called murine CD28
The assay can be described thus: anti-CD28 co-IP, stimulated transduced PKCθ-/- T cells (FIG. 4c).

T1 sequence (P06239 2-509 W97A limits assumed): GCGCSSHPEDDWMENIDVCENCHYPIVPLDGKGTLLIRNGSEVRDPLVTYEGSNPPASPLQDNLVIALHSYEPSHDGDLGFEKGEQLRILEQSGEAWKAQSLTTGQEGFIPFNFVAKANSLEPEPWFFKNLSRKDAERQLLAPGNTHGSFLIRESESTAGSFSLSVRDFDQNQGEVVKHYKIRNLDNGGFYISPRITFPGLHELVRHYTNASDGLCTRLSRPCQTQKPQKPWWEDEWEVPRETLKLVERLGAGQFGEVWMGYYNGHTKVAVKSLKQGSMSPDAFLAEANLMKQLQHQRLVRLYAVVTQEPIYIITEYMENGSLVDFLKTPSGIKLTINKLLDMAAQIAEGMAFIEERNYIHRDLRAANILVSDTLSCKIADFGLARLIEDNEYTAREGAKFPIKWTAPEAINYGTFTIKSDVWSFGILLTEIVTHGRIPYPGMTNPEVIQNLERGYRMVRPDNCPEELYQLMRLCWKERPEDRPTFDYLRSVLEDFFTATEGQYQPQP
T2 sequence (P31041 20-218): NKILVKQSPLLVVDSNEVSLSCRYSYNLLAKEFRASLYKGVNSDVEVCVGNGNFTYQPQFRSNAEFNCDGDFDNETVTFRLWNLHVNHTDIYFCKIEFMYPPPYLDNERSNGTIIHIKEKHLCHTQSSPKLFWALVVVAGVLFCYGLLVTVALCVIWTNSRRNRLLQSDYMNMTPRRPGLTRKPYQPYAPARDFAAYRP

B1: Myc-tagged PKCθ V3 domain (aa 282-379 of human PKCθ, N-terminal Myc tag) (other)
chain: GINQKLMAEALAMIESTQQARCLRDTEQIFREGPVEIGLPCSIKNEARPPCLPTPGKREPQGISWESPLDEVDKMCHLPEPELNKERPSLQIKLKIED
notes: also called Myc-tagged V3; isolated V3 domain; not shown: N-terminal Myc tag of the pMIG vector
In the case of B1, the binding result in assay [1] is “no binding”.

B2: PKCθ P330/1/4/6A (4P-A; all four Pro residues of the PR motif mutated to alanine) (enzyme)
chain: MSPFLRIGLSNFDCGSCQSCQGEAVNPYCAVLVKEYVESENGQMYIQKKPTMYPPWDSTFDAHINKGRVMQIIVKGKNVDLISETTVELYSLAERCRKNNGKTEIWLELKPQGRMLMNARYFLEMSDTKDMNEFETEGFFALHQRRGAIKQAKVHHVKCHEFTATFFPQPTFCSVCHEFVWGLNKQGYQCRQCNAAIHKKCIDKVIAKCTGSAINSRETMFHKERFKIDMPHRFKVYNYKSPTFCEHCGTLLWGLARQGLKCDACGMNVHHRCQTKVANLCGINQKLMAEALAMIESTQQARCLRDTEQIFREGPVEIGLPCSIKNEARAACLATAGKREPQGISWESPLDEVDKMCHLPEPELNKERPSLQIKLKIEDFILHKMLGKGSFGKVFLAEFKKTNQFFAIKALKKDVVLMDDDVECTMVEKRVLSLAWEHPFLTHMFCTFQTKENLFFVMEYLNGGDLMYHIQSCHKFDLSRATFYAAEIILGLQFLHSKGIVYRDLKLDNILLDKDGHIKIADFGMCKENMLGDAKTNTFCGTPDYIAPEILLGQKYNHSVDWWSFGVLLYEMLIGQSPFHGQDEEELFHSIRMDNPFYPRWLEKEAKDLLVKLFVREPEKRLGVRGDIRQHPLFREINWEELERKEIDPPFRPKVKSPFDCSNFDKEFLNEKPRLSFADRALINSMDQNMFRNFSFMNPGMERLIS
With B2, the binding result in assay [2] was “no binding”.
